Data as given in patent US20200048360A1 (TRACON PHARMACEUTICALS, published 2020).
Like-named read-outs stand apart in the source and are kept apart here.

T1: human CD105 (R&D Systems, Catalog No. 1097-EN) (human, UniProt P17813 26-586)
T1 construct: Captured on the plate by mouse anti-human CD105 (Southern Biotechnologies 9811-01); also called endoglin
T1 sequence (looked up): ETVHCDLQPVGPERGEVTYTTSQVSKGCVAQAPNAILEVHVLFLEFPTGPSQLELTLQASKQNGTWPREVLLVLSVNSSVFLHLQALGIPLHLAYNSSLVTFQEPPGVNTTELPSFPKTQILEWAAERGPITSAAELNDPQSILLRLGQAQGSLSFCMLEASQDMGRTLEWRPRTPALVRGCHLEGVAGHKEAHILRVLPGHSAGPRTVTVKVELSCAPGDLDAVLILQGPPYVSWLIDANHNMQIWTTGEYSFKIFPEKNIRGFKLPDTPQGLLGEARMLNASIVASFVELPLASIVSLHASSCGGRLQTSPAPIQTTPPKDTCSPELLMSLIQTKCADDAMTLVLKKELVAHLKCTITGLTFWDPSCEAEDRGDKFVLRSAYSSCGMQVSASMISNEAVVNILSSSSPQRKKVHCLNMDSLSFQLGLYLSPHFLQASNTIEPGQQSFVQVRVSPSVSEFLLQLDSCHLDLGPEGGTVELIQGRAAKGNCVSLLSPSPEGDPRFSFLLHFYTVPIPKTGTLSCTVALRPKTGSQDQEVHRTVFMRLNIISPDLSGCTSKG


What was measured:
[1] = target: T1, human CD105 (R&D Systems, Catalog No. …); assay: ELISA with OD450 falling against test antibody concentration (competition format of paragraph 712: biotinylated chimeric anti-CD105 on captured human CD105; the legend says only 'binding assay data')
[2] = target: T1, human CD105 (R&D Systems, Catalog No. …); assay: competition ELISA on captured human CD105; competitor biotinylated chimeric anti-CD105
Description: Antibodies were tested in a competition ELISA for binding to CD105 against biotinylated chimeric anti-CD105. Briefly, chimeric anti-CD105 was biotinylated using a micro-biotinylation kit (Sigma, Catalog No. BTAG-1KT) following the manufacturer's instructions. […] Binding of the biotinylated chimeric antibody was detected via streptavidin-HRP (Sigma, Catalog No. 55512) and TMB substrate (Sigma, Catalog No. T0440). OD450 nm values were measured on a Dynex MRX TCII plate reader. The results of the competition analysis are illustrated in FIGS. 7 and 8. […] To allow for comparisons within and between experiments, IC50 values of humanized or humanized/deimmunized variants were normalized against the reference antibody that was included on each plate to give a value for the fold difference. IC50 values are relative to chimeric anti-CD105 and are representative of three experiments. Summary ELISA data are presented in Table 1 and include antibody expression levels […]) as assayed in saturated static cultures.

[3] = target: T1, human CD105 (R&D Systems, Catalog No. …); assay: ELISA with OD450 falling against test antibody concentration (competition format of paragraph 712: biotinylated chimeric anti-CD105 on captured human CD105; the legend says only 'binding assay data'); remark: listed apart in the source
[4] = target: T1, human CD105 (R&D Systems, Catalog No. …); assay: as above; remark: listed apart in the source

| Relative IC50 (fold of chimeric anti-endoglin antibody) [2] | Binder | other results |
| --- | --- | --- |
| 0.76 fold relative to chimeric | VK2AAVH1Q (antibody, V domains shown, IgG1 heavy chain, kappa light chain) VH: EVQLVESGGGLVKPGGSLRLSCAASGFTFSDAWMDWVRQAPGKGLEWVGEIRSQASNHATYYAESVKGRFTISRDDSKNTLYLQMNSLKTEDTAVYYCTRWRRFFDSWGQGTLVTVSS VL: DIQLTQSPSSLSASVGDRATITCRASSSVSYMHWYQQKPGKAPKPWAYATSNLASGVPSRFSGSGSGTDYTLTISSLQPEDFATYYCQQWSSNPLTFGGGTKVEIK | IC50 (read off the curve) [1]: ~0.1 mg/L; IC50 (read off the curve) [3]: ~0.1 mg/L |
| 0.62 fold relative to chimeric | VK2SSVH1R (antibody, V domains shown, IgG1 heavy chain, kappa light chain) VH: EVQLVESGGGLVKPGGSLRLSCAASGFTFSDAWMDWVRQAPGKGLEWVGEIRSRASNHATYYAESVKGRFTISRDDSKNTLYLQMNSLKTEDTAVYYCTRWRRFFDSWGQGTLVTVSS VL: DIQLTQSPSSLSASVGDRVTISCRASSSVSYMHWYQQKPGKAPKPWIYASSNLASGVPSRFSGSGSGTDYTLTISSLQPEDFATYYCQQWSSNPLTFGGGTKVEIK |  |
| 0.77 fold relative to chimeric | VK2SAVH1R (antibody, V domains shown, IgG1 heavy chain, kappa light chain) VH: EVQLVESGGGLVKPGGSLRLSCAASGFTFSDAWMDWVRQAPGKGLEWVGEIRSRASNHATYYAESVKGRFTISRDDSKNTLYLQMNSLKTEDTAVYYCTRWRRFFDSWGQGTLVTVSS VL: DIQLTQSPSSLSASVGDRVTISCRASSSVSYMHWYQQKPGKAPKPWAYATSNLASGVPSRFSGSGSGTDYTLTISSLQPEDFATYYCQQWSSNPLTFGGGTKVEIK |  |
| 0.61 fold relative to chimeric | VK2AAVH1R (antibody, V domains shown, IgG1 heavy chain, kappa light chain) VH: EVQLVESGGGLVKPGGSLRLSCAASGFTFSDAWMDWVRQAPGKGLEWVGEIRSRASNHATYYAESVKGRFTISRDDSKNTLYLQMNSLKTEDTAVYYCTRWRRFFDSWGQGTLVTVSS VL: DIQLTQSPSSLSASVGDRATITCRASSSVSYMHWYQQKPGKAPKPWAYATSNLASGVPSRFSGSGSGTDYTLTISSLQPEDFATYYCQQWSSNPLTFGGGTKVEIK | IC50 (read off the curve) [1]: ~0.1 mg/L; IC50 (read off the curve) [4]: ~0.1 mg/L |
| 1.02 fold relative to chimeric | VK2ASVH1R (antibody, V domains shown, IgG1 heavy chain, kappa light chain) VH: EVQLVESGGGLVKPGGSLRLSCAASGFTFSDAWMDWVRQAPGKGLEWVGEIRSRASNHATYYAESVKGRFTISRDDSKNTLYLQMNSLKTEDTAVYYCTRWRRFFDSWGQGTLVTVSS VL: DIQLTQSPSSLSASVGDRATITCRASSSVSYMHWYQQKPGKAPKPWIYASSNLASGVPSRFSGSGSGTDYTLTISSLQPEDFATYYCQQWSSNPLTFGGGTKVEIK |  |
| 1.41 fold relative to chimeric | VK2ASVH1A (antibody, V domains shown, IgG1 heavy chain, kappa light chain) VH: EVQLVESGGGLVKPGGSLRLSCAASGFTFSDAWMDWVRQAPGKGLEWVAEIRSKASNHATYYAESVKGRFTISRDDSKNTLYLQMNSLKTEDTAVYYCTRWRRFFDSWGQGTLVTVSS VL: DIQLTQSPSSLSASVGDRATITCRASSSVSYMHWYQQKPGKAPKPWIYASSNLASGVPSRFSGSGSGTDYTLTISSLQPEDFATYYCQQWSSNPLTFGGGTKVEIK |  |
| 0.87 fold relative to chimeric | VK2SAVH1Q (antibody, V domains shown, IgG1 heavy chain, kappa light chain) VH: EVQLVESGGGLVKPGGSLRLSCAASGFTFSDAWMDWVRQAPGKGLEWVGEIRSQASNHATYYAESVKGRFTISRDDSKNTLYLQMNSLKTEDTAVYYCTRWRRFFDSWGQGTLVTVSS VL: DIQLTQSPSSLSASVGDRVTISCRASSSVSYMHWYQQKPGKAPKPWAYATSNLASGVPSRFSGSGSGTDYTLTISSLQPEDFATYYCQQWSSNPLTFGGGTKVEIK |  |
| 0.84 fold relative to chimeric | VK2SAVH1A2 (antibody, V domains shown, IgG1 heavy chain, kappa light chain) VH: EVQLVESGGGLVKPGGSLRLSCAASGFTFSDAWMDWVRQAPGKGLEWVGEARSKASNHATYYAESVKGRFTISRDDSKNTLYLQMNSLKTEDTAVYYCTRWRRFFDSWGQGTLVTVSS VL: DIQLTQSPSSLSASVGDRVTISCRASSSVSYMHWYQQKPGKAPKPWAYATSNLASGVPSRFSGSGSGTDYTLTISSLQPEDFATYYCQQWSSNPLTFGGGTKVEIK |  |
| 1.21 fold relative to chimeric | VK2SSVH1S (antibody, V domains shown, IgG1 heavy chain, kappa light chain) VH: EVQLVESGGGLVKPGGSLRLSCAASGFTFSDAWMDWVRQAPGKGLEWVSEIRSKASNHATYYAESVKGRFTISRDDSKNTLYLQMNSLKTEDTAVYYCTRWRRFFDSWGQGTLVTVSS VL: DIQLTQSPSSLSASVGDRVTISCRASSSVSYMHWYQQKPGKAPKPWIYASSNLASGVPSRFSGSGSGTDYTLTISSLQPEDFATYYCQQWSSNPLTFGGGTKVEIK |  |
| 1.03 fold relative to chimeric | VK2SSVH1A2 (antibody, V domains shown, IgG1 heavy chain, kappa light chain) VH: EVQLVESGGGLVKPGGSLRLSCAASGFTFSDAWMDWVRQAPGKGLEWVGEARSKASNHATYYAESVKGRFTISRDDSKNTLYLQMNSLKTEDTAVYYCTRWRRFFDSWGQGTLVTVSS VL: DIQLTQSPSSLSASVGDRVTISCRASSSVSYMHWYQQKPGKAPKPWIYASSNLASGVPSRFSGSGSGTDYTLTISSLQPEDFATYYCQQWSSNPLTFGGGTKVEIK |  |
| 1.21 fold relative to chimeric | VK2SSVH1Q (antibody, V domains shown, IgG1 heavy chain, kappa light chain) VH: EVQLVESGGGLVKPGGSLRLSCAASGFTFSDAWMDWVRQAPGKGLEWVGEIRSQASNHATYYAESVKGRFTISRDDSKNTLYLQMNSLKTEDTAVYYCTRWRRFFDSWGQGTLVTVSS VL: DIQLTQSPSSLSASVGDRVTISCRASSSVSYMHWYQQKPGKAPKPWIYASSNLASGVPSRFSGSGSGTDYTLTISSLQPEDFATYYCQQWSSNPLTFGGGTKVEIK |  |
| 1.31 fold relative to chimeric | VK2ASVH1S (antibody, V domains shown, IgG1 heavy chain, kappa light chain) VH: EVQLVESGGGLVKPGGSLRLSCAASGFTFSDAWMDWVRQAPGKGLEWVSEIRSKASNHATYYAESVKGRFTISRDDSKNTLYLQMNSLKTEDTAVYYCTRWRRFFDSWGQGTLVTVSS VL: DIQLTQSPSSLSASVGDRATITCRASSSVSYMHWYQQKPGKAPKPWIYASSNLASGVPSRFSGSGSGTDYTLTISSLQPEDFATYYCQQWSSNPLTFGGGTKVEIK |  |
| 1.04 fold relative to chimeric | VK2ASVH1Q (antibody, V domains shown, IgG1 heavy chain, kappa light chain) VH: EVQLVESGGGLVKPGGSLRLSCAASGFTFSDAWMDWVRQAPGKGLEWVGEIRSQASNHATYYAESVKGRFTISRDDSKNTLYLQMNSLKTEDTAVYYCTRWRRFFDSWGQGTLVTVSS VL: DIQLTQSPSSLSASVGDRATITCRASSSVSYMHWYQQKPGKAPKPWIYASSNLASGVPSRFSGSGSGTDYTLTISSLQPEDFATYYCQQWSSNPLTFGGGTKVEIK |  |
| 0.49 fold relative to chimeric | VK2SAVH1A (antibody, V domains shown, IgG1 heavy chain, kappa light chain) VH: EVQLVESGGGLVKPGGSLRLSCAASGFTFSDAWMDWVRQAPGKGLEWVAEIRSKASNHATYYAESVKGRFTISRDDSKNTLYLQMNSLKTEDTAVYYCTRWRRFFDSWGQGTLVTVSS VL: DIQLTQSPSSLSASVGDRVTISCRASSSVSYMHWYQQKPGKAPKPWAYATSNLASGVPSRFSGSGSGTDYTLTISSLQPEDFATYYCQQWSSNPLTFGGGTKVEIK |  |
| 0.96 fold relative to chimeric | VK2SAVH1S (antibody, V domains shown, IgG1 heavy chain, kappa light chain) VH: EVQLVESGGGLVKPGGSLRLSCAASGFTFSDAWMDWVRQAPGKGLEWVSEIRSKASNHATYYAESVKGRFTISRDDSKNTLYLQMNSLKTEDTAVYYCTRWRRFFDSWGQGTLVTVSS VL: DIQLTQSPSSLSASVGDRVTISCRASSSVSYMHWYQQKPGKAPKPWAYATSNLASGVPSRFSGSGSGTDYTLTISSLQPEDFATYYCQQWSSNPLTFGGGTKVEIK |  |
